Ten molecules from article PMC12462963, “Quorum Sensing Inhibits Type III‐A CRISPR‐Cas System Activity Through Repressing Positive Regulators SarA and ArcR in Staphylococcus Aureus” can be followed below.

Data set [1] addresses T1, ArcR-His6 (Staphylococcus aureus TZ0912) (UniProt Q2FUY1).
T1 sequence: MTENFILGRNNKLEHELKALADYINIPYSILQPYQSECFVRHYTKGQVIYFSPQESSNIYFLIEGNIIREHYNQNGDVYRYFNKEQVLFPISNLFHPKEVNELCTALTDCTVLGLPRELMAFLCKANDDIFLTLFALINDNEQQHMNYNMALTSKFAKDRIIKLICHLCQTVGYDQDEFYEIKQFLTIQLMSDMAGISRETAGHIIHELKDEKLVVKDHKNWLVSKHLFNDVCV
The data set is described as follows: EMSA. As to conditions: EMSA: 750 mM NaCl, 50 mM Tris-HCl pH 7.4, 0.5 mM DTT, 0.5 mM EDTA (as printed for binding buffer), 20 ng probe in 20 uL, 30 min 37 C; 6% gel, 0.5x TBE. A general note: A gel shift assay detects complexes by their altered migration in electrophoresis.

The target of data set [2] is T2, ArcR-His6 (Staphylococcus aureus TZ0912, UniProt Q2FUY1 1-234).
T2 sequence: T1 sequence
Description: EMSA; EMSA: 750 mM NaCl, 50 mM Tris-HCl pH 7.4, 0.5 mM DTT, 0.5 mM EDTA (as printed for binding buffer), 20 ng probe in 20 uL, 30 min 37 C; 6% gel, 0.5x TBE. The settings on record: protein: recombinant; tags: His6 (pET28a NdeI/XhoI); chain copies: 2; label: 5'-FAM; blunt.

In data set [3] the target is T2, ArcR-His6. The data set is described as follows: EMSA; 7.2 uM; EMSA: 750 mM NaCl, 50 mM Tris-HCl pH 7.4, 0.5 mM DTT, 0.5 mM EDTA (as printed for binding buffer), 20 ng probe in 20 uL, 30 min 37 C; 6% gel, 0.5x TBE. The settings on record: protein: recombinant; tags: His6 (pET28a NdeI/XhoI); chain copies: 2; label: 5'-FAM; blunt.
In a further data set the target is T3, AgrA-His6 (Staphylococcus aureus TZ0912, UniProt Q5HEG2 1-238).
T3 sequence: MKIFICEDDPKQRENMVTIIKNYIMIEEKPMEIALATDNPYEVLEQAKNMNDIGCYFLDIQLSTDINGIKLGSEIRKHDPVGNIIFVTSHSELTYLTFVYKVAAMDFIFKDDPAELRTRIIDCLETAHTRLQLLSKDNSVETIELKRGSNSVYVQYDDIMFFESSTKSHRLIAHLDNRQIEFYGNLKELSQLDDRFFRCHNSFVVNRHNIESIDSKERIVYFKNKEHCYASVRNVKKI
The data set is described as follows: EMSA; shift from 0.25 uM; EMSA: 750 mM NaCl, 50 mM Tris-HCl pH 7.4, 0.5 mM DTT, 0.5 mM EDTA (as printed for binding buffer), 20 ng probe in 20 uL, 30 min 37 C; 6% gel, 0.5x TBE. The settings on record: protein: recombinant; tags: His6 (pET28a NdeI/XhoI); chain copies: 2; label: 5'-FAM; blunt.

“ATATAGTAGCATGGTGTTAGTTGTCACAGTTTTTGACAGCCAAAATAACACTTGAACCTTTGTGGTTATGCTATTTATTAAAGTATCT (double strand) [Pcrispr1+25+112]”: the binding result in data set [1] is reported as “no binding”.

On to “GGGAGAACTAGAGATAGAATTTGGAAAAAGATTGTTGTAAATAAAATTATTAATCAATCAAAATGTTTAGAAAACAATTTACATAATGAGAATGTGAAGTTAT (double strand) [Pcas-222-123 (Table S2: -241-142)]”, for which, in data set [1], the binding result is reported as “no binding”.

For the molecule “CATATATAATAAGTATTTAATTTTAATATATTTAAACTAATAATAATCAAATATACACTATTAACTGAAGATTTCATTGACTTGACATTTATTAAACTTT (double strand) [Pcrispr1-276-177]”, the binding result in data set [1] is “no binding”.

B1: Pcas-133-118 (Table S2: -152-137) (dsDNA)
DNA 1: TGTGAAGTTATTAGTA
DNA 2: TACTAATAACTTCACA
B1: the binding result with ArcR-His6 [2] is “no binding”.

B2: Pcrispr1+4+20 (dsDNA)
DNA 1: TGTCAAAAAAAGTGACA
DNA 2: TGTCACTTTTTTTGACA
On to B2, for which the binding result with ArcR-His6 [2] was “no binding”.

B3: Pcas-142-103 (Table S2: -161-122) (dsDNA)
DNA 1: TAATGAGAATGTGAAGTTATTAGTAAACTTAGCAAAAGAT
DNA 2: ATCTTTTGCTAAGTTTACTAATAACTTCACATTCTCATTA
Take B3: in the data set with ArcR-His6 [3], the binding result is reported as “binds”.

B4: Pcas-132-113 (Table S2: -151-132) (dsDNA)
DNA 1: GTGAAGTTATTAGTAAACTT
DNA 2: AAGTTTACTAATAACTTCAC
With B4, the binding result with ArcR-His6 [3] is listed as “no binding”.

B5: Pcas-137-108 (Table S2: -156-127) (dsDNA)
DNA 1: AGAATGTGAAGTTATTAGTAAACTTAGCAA
DNA 2: TTGCTAAGTTTACTAATAACTTCACATTCT
On to B5, for which, in the data set with ArcR-His6 [3], the binding result is “binds”.

B6: agr P2 promoter (dsDNA)
DNA 1: TACATTTAACAGTTAAGTATTTATTTCCTACAGTTAGGCAATATAATG
DNA 2: CATTATATTGCCTAACTGTAGGAAATAAATACTTAACTGTTAAATGTA
For the molecule B6, the binding result with AgrA-His6 was “binds”.

B7: Pcrispr1-26+24 (dsDNA)
DNA 1: CTTAATATATAGAAAATTATCATAATATTTGTCAAAAAAAGTGACATTTC
DNA 2: GAAATGTCACTTTTTTTGACAAATATTATGATAATTTTCTATATATTAAG
B7: in the data set with ArcR-His6 [3], the binding result is recorded as “binds”.
